According to the supplement of paper PMC12042874:
± gives the uncertainty stated by the source.

Assay: amyloid nucleation score (Sup35N fusion, yeast selection) (log enrichment); library NNK3; higher = more nucleation; inactive = no reads after selection
Method in brief: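 The nucleation score is the log enrichment of output over input reads, calculated with DiMSum and centred on the mode score of non-aggregating sequences. Sequences with under 100 input reads were excluded. Reads came from Illumina sequencing of plasmid inserts from psi-negative yeast expressing Sup35N fused to peptides of 20 random codons, induced 24 hours with 100 μM copper sulfate and grown 7 days at 30°C without adenine and uracil.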

NCCPIIPVDYNYNRLPIIVG
amyloid nucleation score: inactive

CVEIVGMESASCVVMNPLVC
amyloid nucleation score: inactive

DTVMGSCDEFYLFASRHLCL
amyloid nucleation score: inactive

IWTLS
amyloid nucleation score: inactive

TGSDAYSMRMPRQPPISFVV
amyloid nucleation score: inactive

DNLPTRRYLNKNDWRGASYL
amyloid nucleation score: inactive

LNDDLCSRVFWVYEYHECQV
amyloid nucleation score: inactive

YRILYGWSFMIRLILDVQRE
amyloid nucleation score: inactive

KCTANL
amyloid nucleation score: inactive

TRWRSLSEGPSVGLEITPRF
amyloid nucleation score: inactive

KDVPPFFSSSFNWAGLRKDK
amyloid nucleation score: 0.436 ± 0.41

ARVRFSLKRSCMLVHA
amyloid nucleation score: inactive

GKLFWFCFRWRYLLTKMVQN
amyloid nucleation score: -0.702 ± 1.3

RLNTMCYSSALASS
amyloid nucleation score: inactive

LYINYLCWMNKYTACLPLHL
amyloid nucleation score: inactive

MMFDYLLLRGHNAQIQLWWY
amyloid nucleation score: inactive

LSPPLVSWGGPTVRMGKCSG
amyloid nucleation score: inactive

GSSSCY
amyloid nucleation score: inactive

VVRYPSMKE
amyloid nucleation score: inactive

STASILFIGVKYVM
amyloid nucleation score: 0.889 ± 0.32

DFRLFFCLYGVYNLRYCFGW
amyloid nucleation score: inactive

DSSSDGSLTYDRGRSRSLFE
amyloid nucleation score: inactive

SNAFSGLRQLPPSNDSLCKG
amyloid nucleation score: inactive

LNNFMWKHVMGYPYVAWLAF
amyloid nucleation score: inactive

QVDHNWF
amyloid nucleation score: inactive

RTLCRLWTLCCRCRSYALFR
amyloid nucleation score: inactive

REKLDQP
amyloid nucleation score: inactive

DSFILLDTSTHTNTTAYGKC
amyloid nucleation score: inactive

VFSKSLGI
amyloid nucleation score: inactive

YDLVSNG
amyloid nucleation score: inactive

AGKYIQNYEVKGCLSAYRAG
amyloid nucleation score: inactive

SNDYCRGCVCLDSGMNVCVA
amyloid nucleation score: inactive

PTIHGVMGVEPMSYSLL
amyloid nucleation score: inactive

SVIVTYVWVTAVVQGEYSTK
amyloid nucleation score: -0.095 ± 0.55

LVFKLAEMCADPIKQRCCGL
amyloid nucleation score: inactive

SLVSFFCHVGNKWFNHDFPI
amyloid nucleation score: inactive

ALHWKGLQT
amyloid nucleation score: inactive

ELDGMTYASDHAFCISRNSS
amyloid nucleation score: inactive

TYGGLFLVHTVYVVALNWVR
amyloid nucleation score: inactive

LCRGYDRLKRPHSVVSGSIC
amyloid nucleation score: inactive

NRWIRLLNAISWGYLRMLMV
amyloid nucleation score: inactive

NLVAMVYSLLSSNWKEVISK
amyloid nucleation score: -0.406 ± 0.8

RKNLWLVTTGNSARDMLSKM
amyloid nucleation score: inactive

DERLVYGEKSCRFSLSYANM
amyloid nucleation score: inactive

PRSVVMYNNFINWYKTHKYY
amyloid nucleation score: 1.62 ± 0.067

VVLQDPGSLYEPRSHGTWFT
amyloid nucleation score: inactive

GMAWLVGWLGLRLLTYFGYR
amyloid nucleation score: inactive

WVDWFESSQTFFCALYE
amyloid nucleation score: inactive

TWSSLFMIFQYTCAGCWDFK
amyloid nucleation score: 1.52 ± 0.068

CCTSA
amyloid nucleation score: inactive

VIKSIWQSYGRKRSYLDMSI
amyloid nucleation score: inactive

TLFNLFRVKLIDEPNLAKWL
amyloid nucleation score: inactive

GLSISFTTDFFLKVLSESAR
amyloid nucleation score: inactive

EKYWNN
amyloid nucleation score: inactive

NCDNSNGYSTHEIEDRSTLR
amyloid nucleation score: inactive

IFSLLPVDILVTLY
amyloid nucleation score: inactive

YIKLGYQYLYVGE
amyloid nucleation score: inactive

FCAINP
amyloid nucleation score: inactive

SSGSPFNCWHSLHCSSRPFK
amyloid nucleation score: inactive

SRHTICHKQNSCRKVLSPPH
amyloid nucleation score: inactive

MRPVT
amyloid nucleation score: inactive

FCFRDIYKRSMSRSAYDSG
amyloid nucleation score: inactive

FGIWFGRNLGVGMDTKMSRF
amyloid nucleation score: inactive

GRLSVFLGYIHGRCYGALGR
amyloid nucleation score: -0.635 ± 1.9

TPRKTLSDVLFFRLILS
amyloid nucleation score: inactive

DDVTGKMKKIVCVDSHCQLP
amyloid nucleation score: inactive

TINRLLICI
amyloid nucleation score: -0.14 ± 0.57

LFDLWNRVF
amyloid nucleation score: inactive

DRVSANLTFLSS
amyloid nucleation score: inactive

CKRCIPMRYYQL
amyloid nucleation score: inactive

LRASFWECLCCCVVR
amyloid nucleation score: 2.33 ± 0.073

PSCSRSVTMWKSRNLFIQLA
amyloid nucleation score: inactive

NLSSNVLTAALK
amyloid nucleation score: inactive

WSTMMNNWCLLWGCKLKPKL
amyloid nucleation score: inactive

TVRGEVVGPSDNREKIQKQW
amyloid nucleation score: inactive

EDVYFSYGDVWMVIGALTTV
amyloid nucleation score: inactive

HLNYYGAL
amyloid nucleation score: inactive

GMFPVVRNGRWELRCPAVKW
amyloid nucleation score: inactive

EHPLMSSSVSSTNMFNYAQI
amyloid nucleation score: inactive

LTKYVVFSIY
amyloid nucleation score: 1.16 ± 0.094

GGEGLVRQA
amyloid nucleation score: inactive

LIMLFHSWMSTRWYGVVSNS
amyloid nucleation score: inactive

SIFHLTSKVYISDWFC
amyloid nucleation score: 2 ± 0.088

TVFLDIISDVLILGGVRCRR
amyloid nucleation score: 1.26 ± 0.13

ASASY
amyloid nucleation score: inactive

LDYAFCILNNNCREC
amyloid nucleation score: 3.05 ± 0.057

ADLATYLTDLTERDAILSPP
amyloid nucleation score: 0.424 ± 0.39

VSPRRGHNVYLIVAARWCVA
amyloid nucleation score: inactive

QQLRNWFHLDPTLARKPKFL
amyloid nucleation score: inactive

IHLSCMIIKRHLSRYCDQSR
amyloid nucleation score: inactive

KLFISPLEMLISRISWTILH
amyloid nucleation score: 0.152 ± 0.77

EFDDRACYDDTV
amyloid nucleation score: inactive

ATIGRVRGLKDPHLYQCAFM
amyloid nucleation score: inactive

IVERKVRPAHFYYSLVYEQS
amyloid nucleation score: inactive

HKCMCVY
amyloid nucleation score: inactive

FICFNFHRKECVEKASSSCK
amyloid nucleation score: 1.39 ± 0.064

LLYRWVGFHLIKLSVNAWLS
amyloid nucleation score: -1.01 ± 2.4

VYRERPMSKEGRCIEWHNLA
amyloid nucleation score: inactive

QNMCAARPS
amyloid nucleation score: inactive

QCTASLEHHFVNNQDNASAW
amyloid nucleation score: inactive

CMKLYRHFLNKASVHSDKGV
amyloid nucleation score: inactive

YVTHMQLGYLSVMCMEVKRG
amyloid nucleation score: 1.35 ± 0.085

CIILRVCTHLVKSSARLPAP
amyloid nucleation score: inactive

RGWDVWAVHSEFYCLKKLIV
amyloid nucleation score: inactive

RVFYIVDMVFIFKRCSIRES
amyloid nucleation score: inactive

LRSSYQNLDPSVCQQFHLGE
amyloid nucleation score: -0.075 ± 0.66

SDGIYV
amyloid nucleation score: inactive

SFMITFLIMRHVASFA
amyloid nucleation score: inactive

VSDLEERSSILG
amyloid nucleation score: inactive

REGSDHRFMICETFYFE
amyloid nucleation score: inactive

FQRVCYHVWSTKN
amyloid nucleation score: inactive

DYLPFHLMERDKVALAPWWA
amyloid nucleation score: inactive

MNLVSSIVNYCFGRWGWLVG
amyloid nucleation score: inactive

GDTRF
amyloid nucleation score: inactive

CFLYYRM
amyloid nucleation score: 1.17 ± 0.11

IGVKSYWLRRSYLLFKYWMV
amyloid nucleation score: inactive

LNQGSYYGMARFPL
amyloid nucleation score: inactive

GGLRNNPKRVIRDEDVQVHM
amyloid nucleation score: inactive

THDAVNFVLRHWAITGNTDM
amyloid nucleation score: inactive

HDDSTSNNSPVSRKPLSPWS
amyloid nucleation score: inactive

FLSSCKLMGFMS
amyloid nucleation score: inactive

QYFFNRKL
amyloid nucleation score: inactive

VSYLVCIDWVCPSGQWNAFW
amyloid nucleation score: 1.52 ± 0.11

TKTHCFLLLSGVCVGRVLGW
amyloid nucleation score: inactive

MSEFSQCRFKSHTFFVTSNR
amyloid nucleation score: inactive

SYFVWVNV
amyloid nucleation score: inactive

WGQCNELTMFFRFFLTFYIA
amyloid nucleation score: inactive

MFRVSWFLISGLLRSVAWNG
amyloid nucleation score: inactive

LNVMFSFRYPWFSVFVLMIV
amyloid nucleation score: inactive

SYSWYFYSAGTSWI
amyloid nucleation score: inactive

ANSDCLFARFDRLFDVSVED
amyloid nucleation score: -0.295 ± 0.71

NKSLWGC
amyloid nucleation score: inactive

VERHFAVDERP
amyloid nucleation score: -0.682 ± 2.5

TIVFCIVLGWLEFHRHFVSD
amyloid nucleation score: inactive

MKIGETYDLTSINPAAWNVR
amyloid nucleation score: inactive

SPWYLNVAIGTAKGCLSFID
amyloid nucleation score: inactive

YIIFLTMAHF
amyloid nucleation score: 0.656 ± 0.29

SYMLTFK
amyloid nucleation score: inactive

KMDQYCWGFFVSWYMRKKVF
amyloid nucleation score: inactive

YVVRN
amyloid nucleation score: inactive

PNLYIMYGAFKIVLHSPDWG
amyloid nucleation score: inactive

VGEVGGYGEFAE
amyloid nucleation score: inactive

YNDGVCIILFNLPFVCRRST
amyloid nucleation score: 2.85 ± 0.05

GCKYSATTAHCADKSVPVTG
amyloid nucleation score: inactive

WCFHVKTSSLVLSRQWEPLS
amyloid nucleation score: inactive

VLSVSLNACTIGWST
amyloid nucleation score: 1.34 ± 0.1

MVDVNLAKRNGMNQSLHGNS
amyloid nucleation score: inactive

NYYSGMRLSQNKKTST
amyloid nucleation score: 0.701 ± 0.11

WFSPRDVNYSREVFKANTLT
amyloid nucleation score: inactive

YWFSQFVIFGCSS
amyloid nucleation score: inactive

QWMQRTW
amyloid nucleation score: inactive

VWQRAKSSTIGPLIW
amyloid nucleation score: inactive

RRSTYLIVFVG
amyloid nucleation score: inactive

CYVWSTALCVNISCGSSTAE
amyloid nucleation score: 2.7 ± 0.054

SCNQKMGHLNFCNFFWTLTV
amyloid nucleation score: inactive

DVAYFNAFY
amyloid nucleation score: inactive

VMCMCCISVHSTLMFLDITN
amyloid nucleation score: 2.85 ± 0.063

GYGHVIYLYYCQRHDNPQVQ
amyloid nucleation score: inactive

FNSAHDQAAQVRHLHVNVFL
amyloid nucleation score: 3 ± 0.064
